# Residue numbers refer to the chain shown, from its start. Read-outs that look alike come from different tables or passages of the source.
# B1: Roche-BCMA/CD3 (Alnuctamab) (bispecific antibody, human IgG1, kappa, L234A L235A)
# chain: EVQLLESGGGLVQPGGSLRLSCAASGFTFSTYAMNWVRQAPGKGLEWVSRIRSKYNNYATYYADSVKGRFTISRDDSKNTLYLQMNSLRAEDTAVYYCVRHGNFGNSYVSWFAYWGQGTLVTVSSASVAAPSVFIFPPSDEQLKSGTASVVCLLNNFYPREAKVQWKVDNALQSGNSQESVTEQDSKDSTYSLSSTLTLSKADYEKHKVYACEVTHQGLSSPVTKSFNRGEC
# heavy 1: not shown
# light: EIVLTQSPGTLSLSPGERATLSCRASQSVSDEYLSWYQQKPGQAPRLLIHSASTRATGIPDRFSGSGSGTDFTLAISRLEPEDFAVYYCQQYGYPPDFTFGQGTKVEIKRTVAAPSVFIFPPSDRKLKSGTASVVCLLNNFYPREAKVQWKVDNALQSGNSQESVTEQDSKDSTYSLSSTLTLSKADYEKHKVYACEVTHQGLSSPVTKSFNRGEC
# heavy 2: EVQLLESGGGLVQPGGSLRLSCAASGFTFSDNAMGWVRQAPGKGLEWVSAISGPGSSTYYADSVKGRFTISRDNSKNTLYLQMNSLRAEDTAVYYCAKVLGWFDYWGQGTLVTVSSASTKGPSVFPLAPSSKSTSGGTAALGCLVEDYFPEPVTVSWNSGALTSGVHTFPAVLQSSGLYSLSSVVTVPSSSLGTQTYICNVNHKPSNTKVDEKVEPKSCDKTHTCPPCPAPEAAGGPSVFLFPPKPKDTLMISRTPEVTCVVVDVSHEDPEVKFNWYVDGVEVHNAKTKPREEQYNSTYRVVSVLTVLHQDWLNGKEYKCKVSNKALGAPIEKTISKAKGQPREPQVCTLPPSRDELTKNQVSLSCAVKGFYPSDIAVEWESNGQPENNYKTTPPVLDSDGSFFLVSKLTVDKSRWQQGNVFSCSVMHEALHNHYTQKSLSLSPGK
# notes: also called Roche-BCMAxCD3
# B2: REGN-BCMA/CD3 (REGN5458) (bispecific antibody)
# VH: EVQLVESGGGLVQPGGSLRLSCAASGFTFSNFWMTWVRQAPGKGLEWVANMNQDGSEKYYVDSVKGRFTISRDNAKSSLYLQMNSLRAEDTAVYYCARDREYCISTSCYDDFDYWGQGTLVTVSS
# VL: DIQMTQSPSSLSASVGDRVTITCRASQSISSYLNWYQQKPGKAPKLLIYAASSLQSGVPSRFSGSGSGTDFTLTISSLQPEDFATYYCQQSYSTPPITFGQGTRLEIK
# chain: EVQLVESGGGLVQPGRSLRLSCAASGFTFDDYSMHWVRQAPGKGLEWVSGISWNSGSKGYADSVKGRFTISRDNAKNSLYLQMNSLRAEDTALYYCAKYGSGYGKFYHYGLDVWGQGTTVTVSS
# B3: B3-7F5.3 (87) (7F5.3_sp34.87_497_triFab) (trispecific antibody, human IgG1, kappa, lambda, L234A L235A)
# heavy 1: not shown
# light 1: not shown
# heavy 2: not shown
# light 2: DIQMTQSPSSLSASVGDRVTITCRASQSISRYLNWYQDKPGKAPKLLIYAASSLQSGVPSRFSGSGSGTDFTLTISSLQPEDFATYYCQQKYFDITFGGGTKVEIKRTVAAPSVFIFPPSDECLKSGTASVVCLLNNFYPREAKVQWKVDNALQSGNSQESVTEQDSKDSTYSLSSTLTLSKADYEKHKVYACEVTHQGLSSPVTKSFNRGES
# light 3: QAVVTQEPSLTVSPGGTVTLTCRSSTGAVTTSNYANWVQKKPGQAPRGLIGGTNKRAPGVPARFSGSLLGDKAALTLLGAQPEDEAEYYCALWYSNLWVFGQGTKLTVLGQPKAAPSVTLFPPSSEELQANKATLVCLISDFYPGAVTVAWKADSSPVKAGVETTTPSKQSNNKYAASSYLSLTPEQWKSHRSYSCQVTHEGSTVEKTVAPTECS
# notes: also called Exemplary antibody No. 5
# B4: B5 (87) (hz5E12_sp34.87_497_triFab) (trispecific antibody, human IgG1, kappa, lambda, L234A L235A)
# heavy 1: not shown
# light 1: DIVMTQSPDSLAVSLGERATINCRASESVDSYGITFMNWYQQKPGQPPKLLIYAASNQGSGVPDRFSGSGSGTDFTLTISSLQAEDVAVYYCQQSKEVPWTFGQGTKLEIKRTVAAPSVFIFPPSDEQLKSGTASVVCLLNNFYPREAKVQWKVDNALQSGNSQESVTEQDSKDSTYSLSSTLTLSKADYEKHKVYACEVTHQGLSSPVTKSFNRGEC
# heavy 2: not shown
# light 2: B3 light 3
# light 3: B3 light 2
# notes: also called Exemplary antibody No. 3
# B5: B3b (87) (497(GLS)_sp34.87_5E12_triFab) (trispecific antibody, human IgG1, kappa, lambda, L234A L235A)
# heavy 1: not shown
# light 1: not shown
# heavy 2: not shown
# light 2: B4 light 1 with Q42D, Q128C, C218S
# light 3: B3 light 3
# notes: also called Exemplary antibody No. 4
# B6: JNJ-BCMA/CD3 (Teclistamab) (bispecific antibody, human IgG4 S228P, lambda, F234A L235A)
# heavy 1: not shown
# light 1: SYVLTQPPSVSVAPGQTARITCGGNNIGSKSVHWYQQPPGQAPVVVVYDDSDRPSGIPERFSGSNSGNTATLTISRVEAGDEAVYYCQVWDSSSDHVVFGGGTKLTVLGQPKAAPSVTLFPPSSEELQANKATLVCLISDFYPGAVTVAWKGDSSPVKAGVETTTPSKQSNNKYAASSYLSLTPEQWKSHRSYSCQVTHEGSTVEKTVAPTECS
# heavy 2: EVQLVESGGGLVQPGGSLRLSCAASGFTFNTYAMNWVRQAPGKGLEWVARIRSKYNNYATYYAASVKGRFTISRDDSKNSLYLQMNSLKTEDTAVYYCARHGNFGNSYVSWFAYWGQGTLVTVSSASTKGPSVFPLAPCSRSTSESTAALGCLVKDYFPEPVTVSWNSGALTSGVHTFPAVLQSSGLYSLSSVVTVPSSSLGTKTYTCNVDHKPSNTKVDKRVESKYGPPCPPCPAPEAAGGPSVFLFPPKPKDTLMISRTPEVTCVVVDVSQEDPEVQFNWYVDGVEVHNAKTKPREEQFNSTYRVVSVLTVLHQDWLNGKEYKCKVSNKGLPSSIEKTISKAKGQPREPQVYTLPPSQEEMTKNQVSLTCLVKGFYPSDIAVEWESNGQPENNYKTTPPVLDSDGSFLLYSKLTVDKSRWQEGNVFSCSVMHEALHNHYTQKSLSLSLGK
# light 2: B3 light 3 with A2T, K40Q, V60T, D71G, L78S, A80V, Q102G
# notes: also called J&J BCMAxCD3
# B7: B3-7F5.3 (24) (7F5.3_sp34.24_497_triFab) (trispecific antibody, human IgG1, kappa, lambda, L234A L235A)
# heavy 1: not shown
# light 1: not shown
# heavy 2: not shown
# light 2: B3 light 2
# light 3: B3 light 3
# notes: also called Exemplary antibody No. 6
# Tests used:
# [1] = target: T1, human BCMA (full-length, on cells) (human, UniProt Q02223 1-184); assay: flow cytometry, GS-CHO-hBCMA cells
# T1 construct: Overexpressed on GS-CHO and 293T cells; also the BCMA of H929 and L363 myeloma cells in the killing assays; also called hBCMA; wild-type BCMA
# T1 sequence: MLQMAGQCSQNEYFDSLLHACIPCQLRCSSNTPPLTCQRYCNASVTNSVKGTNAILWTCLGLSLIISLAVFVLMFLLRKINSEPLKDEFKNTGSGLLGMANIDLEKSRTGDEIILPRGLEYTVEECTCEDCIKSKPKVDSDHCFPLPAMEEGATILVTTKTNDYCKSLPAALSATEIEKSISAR
# [2] = target: T2, cynomolgus monkey BCMA (full-length, on cells) (cynomolgus monkey, UniProt A0A2K5UD97 1-183); assay: flow cytometry, GS-CHO-cynoBCMA cells
# T2 construct: whole, on cells; also called cynoBCMA; GS-CHO-cynoBCMA
# [3] = target: T1, human BCMA (full-length, on cells); assay: cell-based or functional assay
# [4] = target: T1, human BCMA (full-length, on cells); assay: cell-based or functional assay; remark: listed apart in the source
# Cyno BCMA-His = target: T3, Cyno BCMA-His (cynomolgus monkey, UniProt A0A2K5UD97 1-53); assay: BLI (Octet), 1:1 fit
# T3 construct: also called Cyno BCMA (ACRO BCA-C52H7); monkey BCMA
# human CD3E&G-His/Free = target: T4, human CD3E&G-His/Free (human, UniProt P07766 23-126; P09693 23-116); assay: BLI (Octet), 1:1 fit
# T4 construct: Bought recombinant heterodimer; 'His/Free' as printed (one chain His-tagged); also called human CD3 E&G heterodimer
# [5] = target: T1, human BCMA (full-length, on cells); assay: cell-based or functional assay; remark: listed apart in the source
# cyno CD3E&G-His/Free = target: T5, cyno CD3E&G-His/Free (cynomolgus monkey, UniProt Q95LI5 22-117; Q95LI7 23-113); assay: BLI (Octet), 1:1 fit
# T5 construct: Bought recombinant heterodimer; also called monkey CD3 E&G
# T5 sequence (looked up) 1: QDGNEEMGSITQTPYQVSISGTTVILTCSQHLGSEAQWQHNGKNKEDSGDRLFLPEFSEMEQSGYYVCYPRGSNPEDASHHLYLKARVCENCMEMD
# T5 sequence (looked up) 2: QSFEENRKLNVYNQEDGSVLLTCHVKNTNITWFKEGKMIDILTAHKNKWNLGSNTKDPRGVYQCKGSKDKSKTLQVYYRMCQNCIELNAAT
# [6] = target: T6, human CD3 (on Jurkat cells and human T cells) (human, UniProt P07766 23-207); assay: flow cytometry, human CD4 T cells
# T6 construct: whole, on cells; the other chains of the complex on the cells are not described; also called CD3E
# [7] = target: T6, human CD3 (on Jurkat cells and human T …); assay: flow cytometry, Jurkat cells
# [8] = target: T1, human BCMA (full-length, on cells); assay: flow cytometry, GS-CHO-hBCMA cells; remark: listed apart in the source
# [9] = target: T6, human CD3 (on Jurkat cells and human T …); assay: flow cytometry, human CD8 T cells
# [10] = target: T7, human GPRC5D (full-length, on cells) (human, UniProt Q9NZD1 1-345); assay: cell-based or functional assay
# [11] = target: T7, human GPRC5D (full-length, on cells); assay: flow cytometry, GS-CHO-hGPRC5D cells
# [12] = target: T7, human GPRC5D (full-length, on cells); assay: cell-based or functional assay; remark: listed apart in the source
# T4 sequence (P07766 23-126, chain 1 of 2): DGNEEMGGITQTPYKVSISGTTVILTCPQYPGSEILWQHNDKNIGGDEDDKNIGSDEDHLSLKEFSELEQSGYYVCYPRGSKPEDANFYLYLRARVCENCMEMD
# T4 sequence (P09693 23-116, chain 2 of 2): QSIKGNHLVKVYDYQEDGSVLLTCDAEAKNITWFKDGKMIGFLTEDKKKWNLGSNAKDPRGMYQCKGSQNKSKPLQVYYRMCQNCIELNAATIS
# T2 sequence (A0A2K5UD97 entry or part of it): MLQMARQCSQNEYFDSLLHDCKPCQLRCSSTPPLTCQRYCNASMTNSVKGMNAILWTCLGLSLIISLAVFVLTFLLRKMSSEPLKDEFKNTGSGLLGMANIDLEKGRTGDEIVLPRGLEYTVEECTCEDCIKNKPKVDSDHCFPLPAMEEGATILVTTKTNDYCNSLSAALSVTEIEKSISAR
# T3 sequence (A0A2K5UD97 entry or part of it): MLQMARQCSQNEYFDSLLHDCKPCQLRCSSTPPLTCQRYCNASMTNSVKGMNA
# T6 sequence (P07766 23-207): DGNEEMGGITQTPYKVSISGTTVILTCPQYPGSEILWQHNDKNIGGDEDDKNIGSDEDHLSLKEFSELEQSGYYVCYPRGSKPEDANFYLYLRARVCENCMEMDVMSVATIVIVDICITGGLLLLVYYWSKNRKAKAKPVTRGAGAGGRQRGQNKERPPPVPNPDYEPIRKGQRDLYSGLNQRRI
# T7 sequence (Q9NZD1 whole entry): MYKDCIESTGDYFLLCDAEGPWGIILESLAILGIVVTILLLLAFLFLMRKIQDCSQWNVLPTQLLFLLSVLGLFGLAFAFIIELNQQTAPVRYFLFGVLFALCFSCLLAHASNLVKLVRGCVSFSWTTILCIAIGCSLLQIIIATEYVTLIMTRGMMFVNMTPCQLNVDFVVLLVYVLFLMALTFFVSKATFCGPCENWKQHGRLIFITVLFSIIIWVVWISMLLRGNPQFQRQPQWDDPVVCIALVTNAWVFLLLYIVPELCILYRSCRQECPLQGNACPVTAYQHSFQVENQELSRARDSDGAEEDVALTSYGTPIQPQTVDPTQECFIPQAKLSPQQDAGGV
Binder,EC50 [1] [nM],EC50 [2] [nM],"EC50 of PBMC killing of H929 ko GPRC5D cells, donor1 [4] [nM]",Kd (Cyno BCMA-His) [nM],koff (Cyno BCMA-His) [s⁻¹],kon (Cyno BCMA-His) [M⁻¹ s⁻¹],Kd (human CD3E&G-His/Free) [nM],koff (human CD3E&G-His/Free) [s⁻¹],kon (human CD3E&G-His/Free) [M⁻¹ s⁻¹],EC50 [6] [nM],EC50 [9] [nM],Kd (cyno CD3E&G-His/Free) [nM],koff (cyno CD3E&G-His/Free) [s⁻¹],kon (cyno CD3E&G-His/Free) [M⁻¹ s⁻¹],other results
B1,3.08,3.81,0.0045,0.89,0.00125,1.4e+06,13,0.00469,361000,–,–,–,–,–,EC50 of PBMC killing of H929 ko GPRC5D cells (LDH) [3]: 0.0161 nM
B2,59.2,1320,0.0395,14,0.0108,767000,–,–,–,33.4,31.9,–,–,–,EC50 of PBMC killing of H929 ko GPRC5D cells (LDH) [5]: 0.0375 nM; binding result (human CD3E&G-His/Free): no binding (tested: 100 nM); binding result (cyno CD3E&G-His/Free): no binding (tested: 100 nM); EC50 [7]: 12 nM; EC50 [8]: 76.1 nM
B3,–,–,0.167,0.244,0.0002,821000,64.1,0.0152,236000,–,–,58.6,0.012,205000,–
B4,–,–,–,–,–,–,–,–,–,–,–,–,–,–,EC50 of PBMC killing of H929 ko BCMA cells (LDH) [10]: 0.0105 nM; EC50 of PBMC killing of H929 ko GPRC5D cells (LDH) [5]: 0.182 nM; binding result [8]: no binding
B5,–,–,0.14,–,–,–,–,–,–,–,–,–,–,–,"EC50 [11]: 95.9 nM; EC50 of PBMC killing of H929 ko BCMA cells, donor1 [12]: 0.879 nM"
B6,–,829,–,17.5,0.0338,1.94e+06,15.4,0.0057,370000,25.9,24.6,12.1,0.00481,396000,EC50 [7]: 6.39 nM
B7,7.36,9.69,–,–,–,–,14.4,0.00874,608000,43.4,42.4,10.2,0.00675,662000,EC50 of PBMC killing of H929 ko GPRC5D cells (LDH) [3]: 0.0751 nM

# Source: patent EP4725970A1 (Fortvita Biologics Inc., dated 2026)
